Source: US20160130333A1

Molecular target: histones
Assay: ELISA

B1: murine IMMU-H4 antibody (parental murine anti-histone H4 antibody) (antibody, V domains shown)
VH: QVQLQQSGAELVRPGASVKLSCTASGFNIKDDYLHWVKQRPEQGLEWIGWIDPENGDTEYASKFQGKATITADTSSNTAYLQLSSLTSEDTAVYYCSSPLVHLRTFAYWGQGTLVTVS
VL: DIQLTQSPASLAVSLGQRATISCRASESVDSYDNSLHWFQQKPGQPPKLLIYLASNLESGVPARFSGSGSRTDFTLTIDPVEADDAATYYCQQNNEDPWTFGGGTKLEIKR
Q: How did the Kd turn out when B1 was run?
A: 6.6 nM
